Experimental data taken from IntAct's records for PubMed 17157260.

B1: Protein YNG1 (Saccharomyces cerevisiae), Q08465 (parent)
chain: MEHLANENSDSDIRYSFLSTLDHLPCELIRSLRLMQTIDLFKNEEDEPGMERACRDLLLVATYINDLVDDQIHFLKQHKKELEIQKSVTKNFNSSLENIKSKLTLEEPGAYKEPKLLLKINLKKAKSRERKESITSPTIGINQGDVTEGNNNQEEVYCFCRNVSYGPMVACDNPACPFEWFHYGCVGLKQAPKGKWYCSKDCKEIANQRSKSKRQKRRK

Variants of: B1
Conditions: with h3_yeast HHT1, P61830

| effect of a mutation on the interaction | Variant |
| --- | --- |
| decreasing interaction | W180E |
